target: T1, PeptideB2mHLAG C42S mut (single-chain peptide-B2m-HLA-G ECD fusion, His tag removed) (human); assay: complex formation and size exclusion chromatography before crystallisation
T1 construct: Used for complexing and in the crystal structure; also called HLA-G fusion protein

Row | Binder | binding result
1 | Rabbit Fab (VR12389) (Fab, V domains shown, Used for the crystal structure; also called VR12389 RbFab) VH: QSVEESGGRLVTPGTPLTLTCTVSGIDLSSNAMSWVRQAPGEGLEWIGTISSGGRTYYASWAKGRFTISKTSTTVDLKIPSPTTEDTATYFCGRGDGATGFNIWGPGTLVTVSS VL: ALVMTQTPASVSEPVGGTVTIKCQASQSIYSYLSWYQQKPGQPPKLLIYKASTLASGVSSRFKGSGSGTQFTLTISDLECGDAATYYCQNHWNVGGNGWPFGGGTEVVVKR | binds

target: T2, Human HLA-G ECD + B2m (soluble, AVItev10His tag) (human); assay: SPR, 25 C, hIgG4P captured via anti-human Fc, HLA-G ECD+B2m 50 nM as analyte;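 note: biacore T200 readout, 60 s association then 150 s dissociation, reference-cell background subtracted, kinetics fitted to a 1:1 binding model with local Rmax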
T2 construct: also called soluble HLA-G

Row | Binder | Kd | koff | kon
2 | 12389 (chimeric rabbit V regions/human Fc) expressed as hIgG4P (antibody, V domains shown) VH: QSVEESGGRLVTPGTPLTLTCTVSGIDLSSNAMSWVRQAPGEGLEWIGTISSGGRTYYASWAKGRFTISKTSTTVDLKIPSPTTEDTATYFCGRGDGATGFNIWGPGTLVTVSS VL: ALVMTQTPASVSEPVGGTVTIKCQASQSIYSYLSWYQQKPGQPPKLLIYKASTLASGVSSRFKGSGSGTQFTLTISDLECGDAATYYCQNHWNVGGNGWPFGGGTEVVVK | 9.69 nM | 0.0092 s⁻¹ | 949000 M⁻¹ s⁻¹
3 | 12389gL2gH1 hIgG4P (antibody) heavy: not shown light: AIVLTQSPSSLSASVGDRVTITCQASQSIYSYLSWYQQKPGKAPKLLIYKASTLASGVPSRFSGSGSGTDFTLTISSLQPEDFATYYCQNHWNVGGNGWPFGGGTKVEIKRTVAAPSVFIFPPSDEQLKSGTASVVCLLNNFYPREAKVQWKVDNALQSGNSQESVTEQDSKDSTYSLSSTLTLSKADYEKHKVYACEVTHQGLSSPVTKSFNRGEC | 7.63 nM | 0.00708 s⁻¹ | 928000 M⁻¹ s⁻¹
4 | 12389gL2gH5 hIgG4P (antibody, V domains shown) VH: EVQLVESGGGLVQPGGSLRLSCAVSGIDLSSNAMSWVRQAPGKGLEWVGTISSGGRTYYASWAKGRFTISKDSSKNTVYLQMNSLRAEDTAVYYCGRGDGATGFNIWGQGTLVTVSS VL: AIVLTQSPSSLSASVGDRVTITCQASQSIYSYLSWYQQKPGKAPKLLIYKASTLASGVPSRFSGSGSGTDFTLTISSLQPEDFATYYCQNHWNVGGNGWPFGGGTKVEIKR | 12.4 nM | 0.0101 s⁻¹ | 817000 M⁻¹ s⁻¹
5 | 12389gL2gH4 hIgG4P (antibody, V domains shown) VH: EVQLVESGGGLVQPGGSLRLSCAASGIDLSSNAMSWVRQAPGKGLEWIGTISSGGRTYYASWAKGRFTISKDSSKNTVYLQMNSLRAEDTAVYYCGRGDGATGFNIWGQGTLVTVSS VL: AIVLTQSPSSLSASVGDRVTITCQASQSIYSYLSWYQQKPGKAPKLLIYKASTLASGVPSRFSGSGSGTDFTLTISSLQPEDFATYYCQNHWNVGGNGWPFGGGTKVEIKR | 8.09 nM | 0.00718 s⁻¹ | 888000 M⁻¹ s⁻¹
6 | 12389gL2gH13 hIgG4P (antibody, V domains shown) VH: EVQLVESGGGLVQPGGSLRLSCAASGIDLSSNAMSWVRQAPGKGLEWIGTISSGGRTYYASWAKGRFTISKDNSKNTVYLQMNSLRAEDTAVYYCGRGDGATGFNIWGQGTLVTVSS VL: AIVLTQSPSSLSASVGDRVTITCQASQSIYSYLSWYQQKPGKAPKLLIYKASTLASGVPSRFSGSGSGTDFTLTISSLQPEDFATYYCQNHWNVGGNGWPFGGGTKVEIKR | 6.61 nM | 0.00632 s⁻¹ | 956000 M⁻¹ s⁻¹
7 | 12389gL3gH1 hIgG4P (antibody) heavy: not shown light: AIQLTQSPSSLSASVGDRVTITCQASQSIYSYLSWYQQKPGKAPKLLIYKASTLASGVPSRFSGSGSGTDFTLTISSLQPEDFATYYCQNHWNVGGNGWPFGGGTKVEIKRTVAAPSVFIFPPSDEQLKSGTASVVCLLNNFYPREAKVQWKVDNALQSGNSQESVTEQDSKDSTYSLSSTLTLSKADYEKHKVYACEVTHQGLSSPVTKSFNRGEC | 8.25 nM | 0.00697 s⁻¹ | 845000 M⁻¹ s⁻¹
8 | 12389gL2gH14 hIgG4P (antibody, V domains shown) VH: EVQLVESGGGLVQPGGSLRLSCAASGIDLSSNAMSWVRQAPGKGLEWIGTISSGGRTYYASWAKGRFTISKDSSKNTVYLQMNSLRAEDTAVYYCARGDGATGFNIWGQGTLVTVSS VL: AIVLTQSPSSLSASVGDRVTITCQASQSIYSYLSWYQQKPGKAPKLLIYKASTLASGVPSRFSGSGSGTDFTLTISSLQPEDFATYYCQNHWNVGGNGWPFGGGTKVEIKR | 7.58 nM | 0.00664 s⁻¹ | 875000 M⁻¹ s⁻¹
9 | 12389gL2gH8 hIgG4P (antibody, V domains shown) VH: EVQLVESGGGLVQPGGSLRLSCAVSGIDLSSNAMSWVRQAPGKGLEWIGTISSGGRTYYASWAKGRFTISRDSSKNTVYLQMNSLRAEDTAVYYCGRGDGATGFNIWGQGTLVTVSS VL: AIVLTQSPSSLSASVGDRVTITCQASQSIYSYLSWYQQKPGKAPKLLIYKASTLASGVPSRFSGSGSGTDFTLTISSLQPEDFATYYCQNHWNVGGNGWPFGGGTKVEIKR | 15.4 nM | 0.0121 s⁻¹ | 787000 M⁻¹ s⁻¹
10 | 12389gL2gH15 hIgG4P (antibody, V domains shown) VH: EVQLVESGGGLVQPGGSLRLSCAVSGIDLSSNAMSWVRQAPGKGLEWIGTISSGGRTYYASWAKGRFTISKDNSKNTVYLQMNSLRAEDTAVYYCARGDGATGFNIWGQGTLVTVSS VL: AIVLTQSPSSLSASVGDRVTITCQASQSIYSYLSWYQQKPGKAPKLLIYKASTLASGVPSRFSGSGSGTDFTLTISSLQPEDFATYYCQNHWNVGGNGWPFGGGTKVEIKR | 6.33 nM | 0.00567 s⁻¹ | 896000 M⁻¹ s⁻¹
11 | 12389gL2gH9 hIgG4P (antibody, V domains shown) VH: EVQLVESGGGLVQPGGSLRLSCAVSGIDLSSNAMSWVRQAPGKGLEWIGTISSGGRTYYASWAKGRFTISKDNSKNTVYLQMNSLRAEDTAVYYCGRGDGATGFNIWGQGTLVTVSS VL: AIVLTQSPSSLSASVGDRVTITCQASQSIYSYLSWYQQKPGKAPKLLIYKASTLASGVPSRFSGSGSGTDFTLTISSLQPEDFATYYCQNHWNVGGNGWPFGGGTKVEIKR | 7.09 nM | 0.00603 s⁻¹ | 850000 M⁻¹ s⁻¹
12 | 12389gL2gH12 hIgG4P (antibody, V domains shown) VH: EVQLVESGGGLVQPGGSLRLSCAVSGIDLSSNAMSWVRQAPGKGLEWIGTISSGGRTYYASWAKGRFTISKDSSKNTVYLQMNSLRAEDTAVYYCARGDGATGFNIWGQGTLVTVSS VL: AIVLTQSPSSLSASVGDRVTITCQASQSIYSYLSWYQQKPGKAPKLLIYKASTLASGVPSRFSGSGSGTDFTLTISSLQPEDFATYYCQNHWNVGGNGWPFGGGTKVEIKR | 7.39 nM | 0.00624 s⁻¹ | 844000 M⁻¹ s⁻¹
13 | 12389gL2gH6 hIgG4P (antibody, V domains shown) VH: EVQLVESGGGLVQPGGSLRLSCAVSGIDLSSNAMSWVRQAPGKGLEWISTISSGGRTYYASWAKGRFTISKDSSKNTVYLQMNSLRAEDTAVYYCGRGDGATGFNIWGQGTLVTVSS VL: AIVLTQSPSSLSASVGDRVTITCQASQSIYSYLSWYQQKPGKAPKLLIYKASTLASGVPSRFSGSGSGTDFTLTISSLQPEDFATYYCQNHWNVGGNGWPFGGGTKVEIKR | 12.5 nM | 0.0104 s⁻¹ | 839000 M⁻¹ s⁻¹
14 | 12389gL3gH16 hIgG4P (antibody) heavy: not shown light: AIQLTQSPSSLSASVGDRVTITCQASQSIYSYLSWYQQKPGKAPKLLIYKASTLASGVPSRFSGSGSGTDFTLTISSLQPEDFATYYCQNHWNVGGNGWPFGGGTKVEIKRTVAAPSVFIFPPSDEQLKSGTASVVCLLNNFYPREAKVQWKVDNALQSGNSQESVTEQDSKDSTYSLSSTLTLSKADYEKHKVYACEVTHQGLSSPVTKSFNRGEC | 6.72 nM |  | 
15 | 12389gL1gH1 hIgG4P (antibody, V domains shown) VH: EVQLVESGGGLVQPGGSLRLSCAVSGIDLSSNAMSWVRQAPGKGLEWIGTISSGGRTYYASWAKGRFTISKDSSKNTVYLQMNSLRAEDTAVYYCGRGDGATGFNIWGQGTLVTVSS VL: AIVLTQSPSSLSASVGDRVTITCQASQSIYSYLSWYQQKPGKAPKLLIYKASTLASGVPSRFSGSGSGTQFTLTISSLQPEDFATYYCQNHWNVGGNGWPFGGGTKVEIKR | 7.99 nM | 0.00678 s⁻¹ | 848000 M⁻¹ s⁻¹
16 | 12389gL2gH16 hIgG4P (antibody, also called Graft 12389gL2gH16) heavy: not shown light: AIVLTQSPSSLSASVGDRVTITCQASQSIYSYLSWYQQKPGKAPKLLIYKASTLASGVPSRFSGSGSGTDFTLTISSLQPEDFATYYCQNHWNVGGNGWPFGGGTKVEIKRTVAAPSVFIFPPSDEQLKSGTASVVCLLNNFYPREAKVQWKVDNALQSGNSQESVTEQDSKDSTYSLSSTLTLSKADYEKHKVYACEVTHQGLSSPVTKSFNRGEC | 6.06 nM |  | 
17 | 12389gL2gH11 hIgG4P (antibody, V domains shown) VH: EVQLVESGGGLVQPGGSLRLSCAVSGIDLSSNAMSWVRQAPGKGLEWIGTISSGGRTYYASWAKGRFTISKDSSKNTLYLQMNSLRAEDTAVYYCGRGDGATGFNIWGQGTLVTVSS VL: AIVLTQSPSSLSASVGDRVTITCQASQSIYSYLSWYQQKPGKAPKLLIYKASTLASGVPSRFSGSGSGTDFTLTISSLQPEDFATYYCQNHWNVGGNGWPFGGGTKVEIKR | 10.7 nM | 0.00907 s⁻¹ | 850000 M⁻¹ s⁻¹

target: T2, Human HLA-G ECD + B2m (soluble, …); assay: SPR, 25 C, hIgG1 captured via anti-human Fc, HLA-G ECD+B2m 50 nM as analyte, first experiment

Row | Binder | Kd | koff | kon
18 | 12389 (chimeric rabbit V regions/human Fc) expressed as hIgG1 (antibody, V domains shown) VH: QSVEESGGRLVTPGTPLTLTCTVSGIDLSSNAMSWVRQAPGEGLEWIGTISSGGRTYYASWAKGRFTISKTSTTVDLKIPSPTTEDTATYFCGRGDGATGFNIWGPGTLVTVSS VL: ALVMTQTPASVSEPVGGTVTIKCQASQSIYSYLSWYQQKPGQPPKLLIYKASTLASGVSSRFKGSGSGTQFTLTISDLECGDAATYYCQNHWNVGGNGWPFGGGTEVVVK | 10.8 nM | 0.0091 s⁻¹ | 841000 M⁻¹ s⁻¹

target: T2, Human HLA-G ECD + B2m (soluble, …); assay: SPR, 25 C, hIgG1 captured via anti-human Fc, HLA-G ECD+B2m 50 nM as analyte, second experiment

Row | Binder | Kd | koff | kon
19 | 12389 (chimeric rabbit V regions/human Fc) expressed as hIgG1 (antibody, V domains shown) VH: QSVEESGGRLVTPGTPLTLTCTVSGIDLSSNAMSWVRQAPGEGLEWIGTISSGGRTYYASWAKGRFTISKTSTTVDLKIPSPTTEDTATYFCGRGDGATGFNIWGPGTLVTVSS VL: ALVMTQTPASVSEPVGGTVTIKCQASQSIYSYLSWYQQKPGQPPKLLIYKASTLASGVSSRFKGSGSGTQFTLTISDLECGDAATYYCQNHWNVGGNGWPFGGGTEVVVK | 11.7 nM | 0.00918 s⁻¹ | 782000 M⁻¹ s⁻¹

From patent publication US20250026836A1 (UCB, published 2025)
